{"source": "the RNAGym collection of RNA variant scans (doi:10.1073/pnas.2313332121)", "parents": {"B1": {"name": "TPR t1 (parent)", "chain": "GACCAAUCUGCCCUCAGAGCUCGAGAACAUCUUCGGAUGCAGAGGAGGCAGGCUUCGGUGGCGCGAUAGCGCCAACGUCCUCAACCUCCAAUGCAUCCCACCACAUGAUGAUGCCUGAAGAGCCUUGGUUUUUUG"}}, "data": [{"variants_of": "B1", "test": "polymerase ribozyme fitness, log enrichment relative to wild type (log ratio); higher = more active; in vitro selection for triplet polymerase activity", "procedure,_shortened": "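Mutant libraries of both subunits of a heterodimeric triplet polymerase ribozyme were PCR-built, transcribed, and selected once in triplicate, with frozen incubation at −7 °C and capture of gel-excised extended constructs on streptavidin beads before RT-PCR. Illumina sequencing of input and output libraries was filtered to genotypes with ≥10 input reads and ≥1 read per output. Fitness is the logarithm of genotype enrichment over wild-type enrichment, using inverse-variance-weighted replicate averages. The logarithm is base 2.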", "values": [{"variant": "G63A C98G", "polymerase ribozyme fitness (log ratio)": -6.74}, {"variant": "C73U A100U G110A", "polymerase ribozyme fitness (log ratio)": -1.9}, {"variant": "C4U G61A C89A", "polymerase ribozyme fitness (log ratio)": -1.4}, {"variant": "G36A U81A", "polymerase ribozyme fitness (log ratio)": -1.3}, {"variant": "G35U C64U A90U U106A C115G G117A A119G", "polymerase ribozyme fitness (log ratio)": -6.88}, {"variant": "A43U G63A A103U G117C U131A", "polymerase ribozyme fitness (log ratio)": -6.74}, {"variant": "G52U C82A A83U G127C", "polymerase ribozyme fitness (log ratio)": -2.33}, {"variant": "A5U G52C C73A C101U U106A U109C G135U", "polymerase ribozyme fitness (log ratio)": -5.42}, {"variant": "C62G U106C U131A", "polymerase ribozyme fitness (log ratio)": -2.52}, {"variant": "A6G G10A", "polymerase ribozyme fitness (log ratio)": 0.127}, {"variant": "C15U C56U G69U C102A", "polymerase ribozyme fitness (log ratio)": -5.73}, {"variant": "C62G U131A", "polymerase ribozyme fitness (log ratio)": -1.42}, {"variant": "A5U G10A A37U U55G", "polymerase ribozyme fitness (log ratio)": -0.809}, {"variant": "C22A A74U C123A U125G", "polymerase ribozyme fitness (log ratio)": -5.38}, {"variant": "C79U C88U", "polymerase ribozyme fitness (log ratio)": -0.115}, {"variant": "C3G C8G C73U C101G G120U", "polymerase ribozyme fitness (log ratio)": -0.772}, {"variant": "A43U G93U", "polymerase ribozyme fitness (log ratio)": -2.7}, {"variant": "C12U C15U A46C G47A G69C A100G C101U G113U C123G", "polymerase ribozyme fitness (log ratio)": -7.1}, {"variant": "A100G G120U", "polymerase ribozyme fitness (log ratio)": -3.45}, {"variant": "C15G G77C", "polymerase ribozyme fitness (log ratio)": -2.39}, {"variant": "A18C C20U C88G G110C", "polymerase ribozyme fitness (log ratio)": -4.72}, {"variant": "C49A G77A C82A U92C G113U C114U", "polymerase ribozyme fitness (log ratio)": -2.49}, {"variant": "C20G C123G U132G", "polymerase ribozyme fitness (log ratio)": -3.39}, {"variant": "G10A A74G C97U C101U A105G U130G", "polymerase ribozyme fitness (log ratio)": -5.19}, {"variant": "A5U C40U G48A", "polymerase ribozyme fitness (log ratio)": -2.13}, {"variant": "U7G G110U", "polymerase ribozyme fitness (log ratio)": -0.723}, {"variant": "G35C A43G G60A C62U C64G A84U C98U A111U A121U", "polymerase ribozyme fitness (log ratio)": -7.98}, {"variant": "A5C C34U G63C U129G", "polymerase ribozyme fitness (log ratio)": -4.67}, {"variant": "C12G C34A", "polymerase ribozyme fitness (log ratio)": -2.33}, {"variant": "G36A G42U", "polymerase ribozyme fitness (log ratio)": -2.99}, {"variant": "A6U A46U G110U", "polymerase ribozyme fitness (log ratio)": -2.57}, {"variant": "A16G G51C C82A C124G", "polymerase ribozyme fitness (log ratio)": -3.19}, {"variant": "C20G C56U C123A", "polymerase ribozyme fitness (log ratio)": -5.13}, {"variant": "G36U A50C G60A", "polymerase ribozyme fitness (log ratio)": -2}, {"variant": "A27U G61A", "polymerase ribozyme fitness (log ratio)": -2.77}, {"variant": "U78C G110U", "polymerase ribozyme fitness (log ratio)": -1.27}, {"variant": "A5U G10A C86U C102U G113A G128C", "polymerase ribozyme fitness (log ratio)": -5.52}, {"variant": "A41C G117C A121C", "polymerase ribozyme fitness (log ratio)": -6.19}, {"variant": "G69C U81G C82U C104U U112G", "polymerase ribozyme fitness (log ratio)": -2.5}, {"variant": "A5U A41C U55C U59C C82G G120C U125A", "polymerase ribozyme fitness (log ratio)": -2.81}, {"variant": "G44A G71A C73A", "polymerase ribozyme fitness (log ratio)": -2.85}, {"variant": "C11G C76U G120A", "polymerase ribozyme fitness (log ratio)": 2.23}, {"variant": "U32C G61A U67G C82U", "polymerase ribozyme fitness (log ratio)": -7.29}, {"variant": "C101G G122A", "polymerase ribozyme fitness (log ratio)": -2.93}, {"variant": "G61C C114G", "polymerase ribozyme fitness (log ratio)": -4.27}, {"variant": "A74G C94U", "polymerase ribozyme fitness (log ratio)": 0.88}, {"variant": "C3U C56G A83U C85A", "polymerase ribozyme fitness (log ratio)": -3.16}, {"variant": "G42U G61U C82U G127A U133A", "polymerase ribozyme fitness (log ratio)": -3.41}, {"variant": "C56G C98U G110A", "polymerase ribozyme fitness (log ratio)": -1.9}, {"variant": "C8A G63A", "polymerase ribozyme fitness (log ratio)": -0.863}, {"variant": "C11G G52U C56G C102U A103C", "polymerase ribozyme fitness (log ratio)": -6.01}, {"variant": "C11G A121C", "polymerase ribozyme fitness (log ratio)": 1.5}, {"variant": "C15U A37G C53U U116C", "polymerase ribozyme fitness (log ratio)": -2.52}, {"variant": "C22G C82G U96A", "polymerase ribozyme fitness (log ratio)": -3.98}, {"variant": "A29C A37C C94U G120C", "polymerase ribozyme fitness (log ratio)": -4.25}, {"variant": "C15A G44U", "polymerase ribozyme fitness (log ratio)": -2.85}, {"variant": "U14G G44C G71U U78A", "polymerase ribozyme fitness (log ratio)": -3.39}, {"variant": "C56U G127A", "polymerase ribozyme fitness (log ratio)": -1.2}, {"variant": "A91C U112A C123A G128C", "polymerase ribozyme fitness (log ratio)": -3.53}, {"variant": "G60A U78C", "polymerase ribozyme fitness (log ratio)": -0.393}, {"variant": "A91U G120A", "polymerase ribozyme fitness (log ratio)": -0.951}, {"variant": "U92A U130G U131G", "polymerase ribozyme fitness (log ratio)": -5.8}, {"variant": "A6G C13G G51A C79G C88A G93C A108U C115U C124U", "polymerase ribozyme fitness (log ratio)": -7.39}, {"variant": "C15A U54A C56G", "polymerase ribozyme fitness (log ratio)": -3.37}, {"variant": "C4U U129A", "polymerase ribozyme fitness (log ratio)": -2.07}, {"variant": "U21A A37C A46U G77A C89U U131C", "polymerase ribozyme fitness (log ratio)": -5.66}, {"variant": "C49A C53A C79A C85U A111C", "polymerase ribozyme fitness (log ratio)": -2.83}, {"variant": "G47A C76A C115U", "polymerase ribozyme fitness (log ratio)": -3.07}, {"variant": "G35A G48A G71A C89A C99A C101U", "polymerase ribozyme fitness (log ratio)": -7.55}, {"variant": "G39A C56A G120U", "polymerase ribozyme fitness (log ratio)": -0.286}, {"variant": "C88A C104A", "polymerase ribozyme fitness (log ratio)": -1.63}, {"variant": "A43C G48A C56U G63A G113U U125C U131A", "polymerase ribozyme fitness (log ratio)": -6.28}, {"variant": "G60U C124A", "polymerase ribozyme fitness (log ratio)": 1.7}, {"variant": "C8G C22U C53A C101A A121G C124A", "polymerase ribozyme fitness (log ratio)": -3.25}, {"variant": "U54C C80A U125A", "polymerase ribozyme fitness (log ratio)": -2.52}, {"variant": "C28U A111C", "polymerase ribozyme fitness (log ratio)": -3.29}, {"variant": "G19A G48U C49U G69U G93U", "polymerase ribozyme fitness (log ratio)": -4.49}, {"variant": "C22U A43G G61U C115A", "polymerase ribozyme fitness (log ratio)": -5.75}, {"variant": "U131C", "polymerase ribozyme fitness (log ratio)": 0.237}, {"variant": "G69C C82A C97G U132A", "polymerase ribozyme fitness (log ratio)": -5.29}, {"variant": "A24U A83U C94U A111C G122A", "polymerase ribozyme fitness (log ratio)": -6.94}, {"variant": "G60U C79U G93A C102A", "polymerase ribozyme fitness (log ratio)": -2.44}, {"variant": "C70U A119G", "polymerase ribozyme fitness (log ratio)": 0.891}]}]}
